# Results taken from PMC8196010 (Communications Biology, 2021).
# No end group written: not given here.
# B1: PALS1 255-336, Q8N3R9 (protein)
# chain: KIVRIEKARDIPLGATVRNEMDSVIISRIVKGGAAEKSGLLHEGDEVLEINGIEIRGKDVNEVFDLLSDMHGTLTFVLIPSQ
# Columns and labels:
# [1] = target: recombinant human PALS1 PDZ (residues 255-336) (Homo sapiens, UniProt Q8N3R9); test: biochemical; type: binding
# [2] = target: SARS-CoV-1 E protein C-terminal PBM (Severe acute respiratory syndrome coronavirus) (UniProt P59637); conditions: cited from earlier work
# [3] = target: SARS-CoV-2 E protein C-terminal PBM (Severe acute respiratory syndrome coronavirus 2) (UniProt P0DTC4); conditions: cited from earlier work
# [4] = target: SARS-CoV-1 E protein PBM (Severe acute respiratory syndrome coronavirus); test: ITC
# [5] = target: SARS-CoV-2 E protein PBM (Severe acute respiratory syndrome coronavirus 2); test: ITC
molecule,measurement,setting,value
EGVPDLLV [SARS-CoV-2 PBM],Kd,[1],22.8 ± 1.2 µM
PALS1 PDZ (from UniProt Q8N3R9),Kd,[2],130 µM
same,Kd,[3],40 µM
SRVPDLLV [SARS-CoV-1 PBM],Kd,[1],29.6 ± 2.3 µM
B1,Kd,[4],29.6 µM
same,Kd,[5],22.8 µM
